{
  "source": "patent US20050143287A1",
  "test_in_all_cases": "cell-based or functional assay",
  "key": {"[1]": {"target": "chimpanzee prokineticin receptor 2 (PKR2) (chimpanzee (Pan troglodytes))"}, "[2]": {"target": "rhesus monkey prokineticin receptor 1 (PKR1) (rhesus monkey)"}, "[3]": {"target": "squirrel monkey prokineticin receptor 2 (PKR2) (squirrel monkey)"}},
  "data": [
    {"substance": "recombinant human PK2 (prokineticin 2) (from UniProt Q9HC23 28-129) (ligand)", "values": [
      {"measurement": "calcium mobilization (aequorin luminescence) in transiently transfected CHO cells", "setting": "[1]", "result": 10, "unit": "nM"},
      {"measurement": "calcium mobilization (aequorin luminescence) in transiently transfected CHO cells", "setting": "[2]", "result": 10, "unit": "nM"}
    ]},
    {"substance": "recombinant human PK1 (prokineticin 1) (from UniProt P58294 20-101) (ligand)", "values": [
      {"measurement": "calcium mobilization (aequorin luminescence) in transiently transfected CHO cells", "setting": "[3]", "result": 10, "unit": "nM"}
    ]}
  ]
}
